Assay results taken from patent US20230295310A1 (ABCELLERA BIOLOGICS, published 2023).
Substitutions are numbered along the chain they refer to.

B1: mAb 141 (antibody, V domains shown)
VH: QVQLVQSGAEVKKPGASVKVSCKASGYTFTSYYIHWVRQAPGQGLDWMGIINPSGGITGYAQKLQGRVTMTRDTSTTTVYMELSSLRSDDTAVYYCARGVRGNYYYYYMDVWGKGTTVTVSS
VL: EIVLTQSPDFQSVTPKEKVTITCRASQSIGSKLHWYQQKPDQSPKLLIKYASQSFSGVPSRFSGSGSGTDFNLTINSLEAEDAATFYCHQSSGLPYTFGQGTKLEIK
notes: VH and VL only
B2: mAb 145 (antibody, V domains shown)
VH: B1 VH with S31N, L64F
VL: B1 VL with Y50F, A80P
notes: VH and VL only
B3: mAb 130 (antibody, V domains shown)
VH: EVQLVESGGGLVKTGGSLRLSCVASGFSFKKAWMNWVRQAPGKGLEWVGRIKRNSDGGATDYAAPVKDRFTLSRDDSKNTLYLQMNSLKTEDTAVYYCTTLDSSSWYVGYYYMDVWGKGTTVTVSS
VL: DIHMTQSPSSVSASLGDRVTFTCRASQDINNWLAWYQQRPGKAPKLLIYTASSLQSGVPSRFSGSGSGTDFTLTISSLQPEDFATYYCQQAHSLPITFGQGTRLGIK
notes: VH and VL only
B4: mAb 120 (antibody, V domains shown)
VH: B3 VH with S55T, A59T, T60A, D68G, N79K, Y82F, W106Y
VL: B3 VL with H3Q, L15V, F21I, R39K, S76G, G105E
notes: VH and VL only
B5: mAb 131 (antibody, V domains shown)
VH: B3 VH with L20I, S55T, A59T, T60I, D68G, T71S, Y82F, Y97F, W106Y
VL: B3 VL with L15V, F21I, R39K, Y87F
notes: VH and VL only
B6: mAb 169 (antibody, V domains shown)
VH: B3 VH with S55T, A59T, T60A, D68G, N79K, Y82F, W106Y
VL: B3 VL with H3Q, L15V, T20I, F21I, R39K, T72I, S76G, G105E
notes: VH and VL only
B7: mAb 114 (antibody, V domains shown)
VH: B3 VH with S55T, A59P, T60A, D68G, N79K
VL: B3 VL with H3Q, L15V, T20I, F21I, Q37L, T50A, S76G, G105E, K107Q
notes: VH and VL only
B8: mAb 166 (antibody, V domains shown)
VH: B3 VH with K43R, S55T, A59T, D68G, T80M, W106L
VL: B3 VL with H3Q, L15V, F21I, R39K, Y87F, G105E, K107T
notes: VH and VL only
B9: mAb 165 (antibody, V domains shown)
VH: B3 VH with S55T, A59T, T60A, D68G, N79R, W106R
VL: B3 VL with H3Q, L15V, T20I, F21I, R39K, A43V, S76G, G105E
notes: VH and VL only
B10: mAb 156 (antibody, V domains shown)
VH: B3 VH with S55T, A59T, T60A, D68G, N79K, Y82F, W106Y
VL: B3 VL with H3Q, L15V, T20I, F21I, R39K, P40A, S76G, G105E
notes: VH and VL only
B11: mAb 155 (antibody, V domains shown)
VH: B3 VH with S55T, A59T, T60A, D68G, N79K, Y82F, W106Y
VL: B3 VL with H3Q, L15V, T20I, F21I, R39K, S76G, T97S, G105D
notes: VH and VL only
B12: mAb 164 (antibody, V domains shown)
VH: B3 VH with S55T, A59T, T60A, D68G, N79K, Y82F, W106Y
VL: B3 VL with H3Q, L15V, F21I, N30K, R39K, S76G, G105E
notes: VH and VL only
B13: mAb 133 (antibody, V domains shown)
VH: B3 VH with N35S, S55T, A59T, T60A, D68G, N79K, Y82F, T93S, T99V, W106Y
VL: B3 VL with H3Q, L15V, T20S, F21I, R39K, S76G, G105E
notes: VH and VL only
B14: mAb 116 (antibody, V domains shown)
VH: B3 VH with A59T, D68G
VL: B3 VL with H3Q, S9F, L15V, F21I, R39K, L46I, G105E
notes: VH and VL only
B15: mAb 122 (antibody, V domains shown)
VH: B3 VH with S55T, A59T, T60A, D68G, N79K, W106R
VL: B3 VL with H3Q, L15V, T20I, F21I, R39K, A43V, S76G, G105E
notes: VH and VL only
B16: mAb 163 (antibody, V domains shown)
VH: B3 VH with A40V, S55T, A59T, T60A, D68G, N79K, Y82F, W106Y
VL: B3 VL with H3Q, L15V, T20I, F21I, R39K, S76G, G105E
notes: VH and VL only
B17: mAb 117 (antibody, V domains shown)
VH: B3 VH with S55T, A59T, D68G, W106L
VL: B3 VL with H3Q, L15V, F21I, R39K, G105E
notes: VH and VL only
B18: mAb 157 (antibody, V domains shown)
VH: B3 VH with N54T, S55A, D68G
VL: B3 VL with S7A, L15V, R39K
notes: VH and VL only
B19: mAb 112 (antibody, V domains shown)
VH: B3 VH with L18H, A59T, D68G, T71I
VL: B3 VL with H3Q, L15V, F21I, R39K, L46I, S53N, Y87F, G105E
notes: VH and VL only
B20: mAb 113 (antibody, V domains shown)
VH: B3 VH with S55T, A59T, D68G
VL: B3 VL with H3Q, L15V, F21I, R39K, L46I, G105E
notes: VH and VL only
B21: mAb 115 (antibody, V domains shown)
VH: B3 VH with L18H, A59T, D68G, T71I
VL: B3 VL with H3Q, L15V, F21I, R39K, L46I, S53N, Y87F, S93G, G105E
notes: VH and VL only
B22: mAb 125 (antibody, V domains shown)
VH: B3 VH with S55T, A59T, T60A, D68G, N79K, W106R
VL: B3 VL with H3Q, L15V, T20I, F21I, R39K, A43V, S76G, S77T, G105D
notes: VH and VL only
B23: mAb 188 (antibody, V domains shown)
VH: QVQLVESGGGVVQPGRSLRLSCAASGFTFSGYGMHWVRQAPGKGLEWVAIIYYNGKKEYYADSVKGRFTISRDNSKNTLYLQMNSLRAEDTAVYYCTRGEGYNWFDPWGQGTLVTVSS
VL: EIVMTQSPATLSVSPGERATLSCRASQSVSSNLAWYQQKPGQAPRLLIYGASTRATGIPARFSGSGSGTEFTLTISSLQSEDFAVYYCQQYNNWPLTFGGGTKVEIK
notes: VH and VL only
B24: mAb 191 (antibody, V domains shown)
VH: B23 VH
VL: EIVMTQSPATLSVSPGERATLSCRASQSVSSNLAWYQQKPGQAPRLLIYGASTRATGIPARFSGSGSGTDFTLTISSLQSEHFAVYYCQQYTNWPLTFGGGTKVEIK
notes: VH and VL only
B25: mAb 197 (antibody, V domains shown)
VH: B23 VH with R16G, Y52W, K56R, E58T, D62E, Y80S, A88V, R98T, E100Q
VL: B24 VL with D70E, H82D, Y91F, T92N, N93A, V104M
notes: VH and VL only
B26: mAb 203 (antibody, V domains shown)
VH: B23 VH with R16G, S30R, K56R, E58T, D62E, Y80S, A88V, R98A, E100Q
VL: B24 VL with D70E, H82D, Y91F, T92N, N93A, V104M
notes: VH and VL only
B27: mAb 192 (antibody, V domains shown)
VH: B23 VH with T112I
VL: B24 VL with D70E, H82D, Q89K, T92K
notes: VH and VL only
B28: mAb 204 (antibody, V domains shown)
VH: B23 VH with P14S, I51V, N54D, K57N, E58K, T97V
VL: B24 VL with A43V, D70Q, H82D, T92N
notes: VH and VL only
B29: mAb 189 (antibody, V domains shown)
VH: B23 VH with N54D, K57N, E58K, N77S, R87G, E89D, E100K
VL: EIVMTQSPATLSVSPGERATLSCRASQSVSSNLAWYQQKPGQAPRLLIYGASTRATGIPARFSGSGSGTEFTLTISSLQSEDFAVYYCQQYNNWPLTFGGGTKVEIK
notes: VH and VL only
B30: mAb 198 (antibody, V domains shown)
VH: B23 VH with R16G, Y52W, K56R, E58T, D62E, Y80S, A88I, R98T, E100Q
VL: B24 VL with D70E, H82D, Y91F, T92N, N93A, V104M
notes: VH and VL only
B31: mAb 199 (antibody, V domains shown)
VH: B23 VH with S71F, Q82H
VL: B24 VL with S31R, D70E, H82D, T92N
notes: VH and VL only
B32: mAb 201 (antibody, V domains shown)
VH: B23 VH
VL: B24 VL with N32S, D70E, H82D, T92N
notes: VH and VL only
B33: mAb 52 (antibody, V domains shown)
VH: QVQLVQSGAEVKKPGASVKVSCKASGYTFTSHDINWVRQATGQGLEWMGWLNPNSGKTGYAQKFQGRVTMARDTSMYTADMELSSLRFEDTAVYYCARVGHYDMWPGFFSFDYWGQGTLVTVSS
VL: DIQMTQSPSSLSASVGDRIIITCRASQDIRNDLGWYQQKPGKAPKRLIYAASSLQSGVPSRFSGSRSGTEFTLTISSLHPEDFATYYCLQHRSYPYTFGQGTNLEIK
notes: VH and VL only
B34: mAb 46 (antibody, V domains shown)
VH: EGQLVESGGGLVQPGGSLRLSCVASGFTLSSYTLNWVRQAPGKGLEWVSYISSTSRTIYYSDSVKGRFTISRDNAKNSLYLQMNSLRDEDTALYYCAREDYYDSSGFDYWGQGTLVTVSS
VL: AIRMTQSPSSFSASTGDRVTITCRASQGISSYLAWYQQKPGKAPKLLIYTASTLQSGVPSRFSGSGSGTDFTLTIRSLQSEDFATYYCQQYYSYPRTFGQGTKVEIK
notes: VH and VL only
B35: mAb 51 (antibody, V domains shown)
VH: B34 VH with G2V, V23A, L34M, T54S, T69S, Y109N
VL: B34 VL
notes: VH and VL only
B36: mAb 137 (antibody, V domains shown)
VH: QVQLVESGGGVVQPGRSLRLSCAASGFTFSTYGMHWVRQAPGKGLEWVAVIWYDGSHKYYADSVKGRFTISRDNSKKTLYLQMNSLRAEDTGIYYCARTGISGNMSYFYFDHWGQGILVTVSS
VL: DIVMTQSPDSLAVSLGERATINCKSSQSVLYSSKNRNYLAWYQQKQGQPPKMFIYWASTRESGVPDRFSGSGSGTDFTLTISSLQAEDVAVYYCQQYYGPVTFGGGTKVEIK
notes: VH and VL only

Columns and labels:
[1] = target: T1, human CD3e/g (human, UniProt P07766 23-126; P09693 23-116); test: SPR (Carterra LSA), mAb on chip
T1 construct: Bought soluble protein; also called hCD3e/g; human CD3e/g (Acro CDD-C52W4)
T1 sequence (P07766 23-126, chain 1 of 2): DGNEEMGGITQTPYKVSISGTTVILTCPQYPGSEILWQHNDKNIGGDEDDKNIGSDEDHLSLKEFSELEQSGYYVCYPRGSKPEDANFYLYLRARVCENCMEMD
T1 sequence (P09693 23-116, chain 2 of 2): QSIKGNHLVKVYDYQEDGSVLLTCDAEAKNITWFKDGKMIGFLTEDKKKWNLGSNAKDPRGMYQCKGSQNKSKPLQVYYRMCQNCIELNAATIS
Summary of the method: (§1)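 Purified mAbs amine-coupled (EDC/S-NHS) at 10 μg/mL in 10 mM NaOAc pH 4.25 onto an HC-30M chip, with benchmark and negative-control mAbs; analyte flowed over the array. Double-referenced sensorgrams fitted globally to a 1:1 Langmuir model for ka, kd and KD.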

[2] = target: T2, human CD3e/d (human, UniProt P07766 23-126; P04234 22-105); test: SPR (Carterra LSA), mAb on chip
T2 construct: Bought soluble protein; also called hCD3e/d; human CD3/ed (Sino CT038-H2508H)
T2 sequence (P07766 23-126, chain 1 of 2): as the sequence (P07766 23-126, chain 1 of 2) above
T2 sequence (P04234 22-105, chain 2 of 2): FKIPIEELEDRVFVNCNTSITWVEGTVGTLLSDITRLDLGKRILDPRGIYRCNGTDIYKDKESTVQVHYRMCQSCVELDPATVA
Summary of the method: as §1

| Binder | Kd [1] [µM] | Kd [2] [µM] |
| --- | --- | --- |
| B1 | 0.026 | 0.0921 |
| B2 | 0.0131 | 0.061 |
| B3 | 0.00607 | 0.0217 |
| B4 | 0.0121 | 0.0444 |
| B5 | 0.00745 | 0.0321 |
| B6 | 0.0126 | 0.0738 |
| B7 | 0.0189 | 0.0658 |
| B8 | 0.0125 | 0.0473 |
| B9 | 0.0106 | 0.0404 |
| B10 | 0.007 | 0.0477 |
| B11 | 0.00707 | 0.0462 |
| B12 | 0.015 | 0.077 |
| B13 | 0.00664 | 0.0272 |
| B14 | 0.0241 | 0.104 |
| B15 | 0.013 | 0.0342 |
| B16 | 0.00863 | 0.042 |
| B17 | 0.00984 | 0.0406 |
| B18 | 0.0122 | 0.0531 |

| Binder | Kd [1] [µM] | Kd [2] [µM] |
| --- | --- | --- |
| B19 | 0.0148 | 0.0569 |
| B20 | 0.0288 | 0.107 |
| B21 | 0.0157 | 0.0638 |
| B22 | 0.0138 | 0.036 |
| B23 | 0.017 | 0.036 |
| B24 | 0.015 | 0.028 |
| B25 | 0.017 | 0.049 |
| B26 | 0.0095 | 0.017 |
| B27 | 0.0093 | 0.0092 |
| B28 | 0.09 | 0.2 |
| B29 | 0.06 | 0.11 |
| B30 | 0.03 | 0.041 |
| B31 | 0.029 | 0.026 |
| B32 | 0.013 | 0.028 |
| B33 | 0.112 | 0.0171 |
| B34 | 0.0984 | 0.24 |
| B35 | 0.171 | 0.351 |
| B36 | 0.95 | 0.181 |
